Measurements published in patent publication US20220064329A1 (Novo Nordisk, published 2022).
Numbering of substitutions follows the chain as printed.

Key:
FVII(a) WT = target: T1, FVII(a) WT (human, UniProt P08709 61-466); assay: SPR, Biacore T200, 25 C; FVII(a) captured on anti-Gla Ab 4F6, mAb0842(OA) injected
T1 construct: also called wild type human FVII(a)
T1 sequence: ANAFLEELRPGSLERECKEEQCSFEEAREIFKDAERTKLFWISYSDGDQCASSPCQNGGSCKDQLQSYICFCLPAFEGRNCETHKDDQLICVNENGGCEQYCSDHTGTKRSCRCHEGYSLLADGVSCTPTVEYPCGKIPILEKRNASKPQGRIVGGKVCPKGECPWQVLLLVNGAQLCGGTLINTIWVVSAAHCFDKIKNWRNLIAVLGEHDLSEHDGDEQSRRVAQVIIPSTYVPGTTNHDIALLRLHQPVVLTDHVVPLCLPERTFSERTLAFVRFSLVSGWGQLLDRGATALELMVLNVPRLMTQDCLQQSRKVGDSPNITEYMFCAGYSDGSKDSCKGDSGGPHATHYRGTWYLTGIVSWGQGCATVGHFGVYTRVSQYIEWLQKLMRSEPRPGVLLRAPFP
Method: (§1) The running buffer was prepared by diluting 10-fold the 10×HBS-P buffer (supplied by GE Healthcare) and supplemented with 1 mg/ml BSA and 5 mM CaCl2 to give 10 mM HEPES, 150 mM NaCl, 0.05% v/v Polysorbate 20, pH 7.4, 5 mM CaCl2, 1 mg/ml bovine serum albumin (BSA). […] Regeneration of the chip was achieved using 10 mM HEPES, 150 mM NaCl, 20 mM EDTA, 0.05 v/v Polysorbate 20, pH 7.4. Binding data were analysed according to a 1:1 Kinetic model and steady state analysis using BiaEvaluation 4.1 supplied by the manufacturer (Biacore AB, Uppsala, Sweden). Wherever possible, ka, kd and KD values from 1:1 kinetic fitting model are reported. […] An amino acid residue is considered a hot-spot residue if substitution of that amino acid residue with alanine results in an affinity reduction of ten (10) fold or more relative to the wild type.

FVII(a) variant E116A = target: T2, FVII(a) variant E116A (human, UniProt P08709 61-466); assay: SPR, ratio of KD to KD of WT
T2 construct: hFVII alanine variant in cell culture supernatant
T2 sequence: T1 sequence with E116A
Method: as §1

FVII(a) variant T130A = target: T3, FVII(a) variant T130A (human, UniProt P08709 61-466); assay: SPR, ratio of KD to KD of WT
T3 construct: hFVII alanine variant in cell culture supernatant
T3 sequence: T1 sequence with T130A
Method: as §1

FVII(a) variant T185A = target: T4, FVII(a) variant T185A (human, UniProt P08709 61-466); assay: SPR, ratio of KD to KD of WT
T4 construct: hFVII alanine variant in cell culture supernatant
T4 sequence: T1 sequence with T185A
Method: as §1

FVII(a) variant R392A = target: T5, FVII(a) variant R392A (human, UniProt P08709 61-466); assay: SPR, ratio of KD to KD of WT
T5 construct: hFVII alanine variant in cell culture supernatant
T5 sequence: T1 sequence with R392A
Method: as §1

B1: mAb0842(OA) (antibody, human IgG4 S228P, kappa)
heavy: QVQLQESGPGLVKPSQTLSLTCTVSGYSISSDSAWSWIRQPPGKGLEWIGYIQYSGSTNYNPSLKSRVTISRDTSKNQFSLKLSSVTAADTAVYYCARSVNYYGNSFAVGYWGQGTLVTVSSASTKGPSVFPLAPCSRSTSESTAALGCLVKDYFPEPVTVSWNSGALTSGVHTFPAVLQSSGLYSLSSVVTVPSSSLGTKTYTCNVDHKPSNTKVDKRVESKYGPPCPPCPAPEFLGGPSVFLFPPKPKDTLMISRTPEVTCVVVDVSQEDPEVQFNWYVDGVEVHNAKTKPREEQFNSTYRVVSVLTVLHQDWLNGKEYKCKVSNKGLPSSIEKTISKAKGQPREPQVYTLPPSQEEMTKNQVSLSCAVKGFYPSDIAVEWESNGQPENNYKTTPPVLDSDGSFFLVSRLTVDKSRWQEGNVFSCSVMHEALHNHYTQKSLSLSLGK
light: EIVLTQSPATLSLSPGERATLSCRASQGISDYLHWYQQKPGEAPRLLIKYTSQPATGIPARFSGSGSGTDFTLTISSLEPEDFAVYYCQNGHSFPLTFGQGTKLEIKRTVAAPSVFIFPPSDEQLKSGTASVVCLLNNFYPREAKVQWKVDNALQSGNSQESVTEQDSKDSTYSLSSTLTLSKADYEKHKVYACEVTHQGLSSPVTKSFNRGEC
chain: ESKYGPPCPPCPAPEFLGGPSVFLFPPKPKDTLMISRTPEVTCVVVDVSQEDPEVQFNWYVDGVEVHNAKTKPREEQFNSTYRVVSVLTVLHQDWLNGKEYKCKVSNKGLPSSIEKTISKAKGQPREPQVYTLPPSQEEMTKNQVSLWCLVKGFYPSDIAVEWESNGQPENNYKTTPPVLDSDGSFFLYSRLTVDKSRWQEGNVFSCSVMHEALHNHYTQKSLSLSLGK
notes: also called monovalent humanized 11F2 antibody; one-armed anti-FVII(a) antibody
Q: Which results are given for B1?
A: Kd (FVII(a) WT): 0.31 nM; Fold diff (Variant/WT) (FVII(a) variant E116A): 1.6 fold; Fold diff (Variant/WT) (FVII(a) variant T130A): 105 fold; Fold diff (Variant/WT) (FVII(a) variant T185A): 3.3 fold; Fold diff (Variant/WT) (FVII(a) variant R392A): 142 fold
